The text below walks through data of the supplement of paper PMC9170038.

Data set [1] deals with MS2 coat protein. As to the kind of experiment: apparent KD of MS2 coat protein, switch ON state; designed switch direction (-1 OFF switch, 1 ON switch): 1; higher = weaker reporter binding. The following applies: FMN input: 0 or 200 uM; Eterna round: R93 (includes R88 designs). In a few lines:
(§1)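 Designed RNA switches were transcribed on-chip from Illumina sequencing clusters. SNAP-549-labelled MS2 coat protein was titrated onto them in twofold steps from 0.7 or 1.5 nM to 3 µM in 100 mM Tris-HCl pH 7.5, 80 mM KCl, 4 mM MgCl2, either without or with constant ligand. Apparent KD reflects the per-design median of normalised cluster binding-curve fits.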

For data set [2], the system named is MS2 coat protein. The data set is described as follows: apparent KD of MS2 coat protein, switch OFF state (with FMN for OFF switches, without FMN for ON switches); designed switch direction (-1 OFF switch, 1 ON switch): 1; higher = weaker reporter binding. The following applies: FMN input: 0 or 200 uM; Eterna round: R93 (includes R88 designs). In a few lines:
as §1

“AGAAGACAUGAGGAUCACCCAUGUGGGAUUAUGGGAGGAUAUACAAAGACGAGAGUCAGAGUAGAAGGCCUAGGAG [salish99-ss1-114(!)]”: the “apparent KD of MS2 coat protein” value with MS2 coat protein [1] was 45.4 nM; in the data set on MS2 coat protein [2], 66.4 nM.
For “AGAAUAAAAACAGAGGAUAUCCAAAAGAAAACAUGAGGAUCACCCAUGUAAAAGAAAAUAAAAUGGGAGAAGGCUGAAAAAAAGA [Mat - Same State 2 - Eli mod - D98]”, the “apparent KD of MS2 coat protein” value with MS2 coat protein [1] stood at 25 nM; in the data set on MS2 coat protein [2], 39.3 nM.
In the same order, the values of “AGGAAACAUGAGGAUCACCCAUGUAAAAAUAUGGGAGGAUAUACAAACAGGAAAGAGAGAGUAGAAGGCCUAAAAG [Garnet 20]” are 72.9 nM and 41.8 nM.
In the same order, the values of “AGGAAACAUGAGGAUCACCCAUGUAAAAAUAUGGGAGGAUAUACGAAGACAAAAAAAAAAGUAGAAGGCCUAAAAG [Garnet 12]” are 65.2 nM and 266 nM.
On the same counts, the results for “AGGAAACAUGAGGAUCACCCAUGUAAAAGGUGGGUAGGAUAUGCGAAAAGAAAAAGAAAAGCAGAAGGACCAAGAA [62%, Something completely different, 1]” are 38.7 nM and 108 nM.
Turning to “AGGAAACAUGAGGAUCACCCAUGUAAAAGGUGGUUAGGAUAUGCGAAAAGAAAAAGAAAAGCAGAAGGGACAAGAA [Inspired by JR's SameStare1_sub2]”, the “apparent KD of MS2 coat protein” value in the data set on MS2 coat protein [1] turned out to be 237 nM; with MS2 coat protein [2], 415 nM.
In the same order, the values of “AGGAAACAUGAGGAUCACCCAUGUAAAGAUGGGCGAGGAUAUCGAAAGAAAAGAAAGAAACGAGAAGGUGCAAAAG [59%, Flamingo, 1]” are 409 nM and 251 nM.
On the same counts, the results for “AGGAAACAUGAGGAUCACCCAUGUAUAAAAAUGGGAGGAUAUACAAAGACGAAAGUCAAAGUAGAAGGCCUAAAAA [76%, Meechl, 7]” are 18.8 nM and 51.5 nM.
In the same order, the values of “AGGAGACAUGAGGAUCACCCAUGUGAGAAGAGGCGAGGAUAUCGAAAGAAAGAAGAGAAACGAGAAGGCGCGAGCA [salish99-SS1-020]” are 19.7 nM and 37.1 nM.
Consider “AGGAGACAUGAGGAUCACCCAUGUGCACGGUGAAGAGGAUAUGUGCGUGGAGAGACACGGACAGAAGGCUUAAGAA [JR_SameState1_Sub5]”, for which the “apparent KD of MS2 coat protein” value in the data set with MS2 coat protein [1] came out at 23 nM; with MS2 coat protein [2] it was 38.9 nM.
On the same counts, the results for “AUAAAACAUGAGGAUCACCCAUGUAAAAAAGCAUGAGGAUAUAUAAAAAGAAAAAGAAGAAUAGAAGGCAUAAUAA [JR_SS001_Sub1223]” are 60.7 nM and 50.5 nM.
On to “AUAAAACAUGAGGAUCACCCAUGUAGAAACAUGGGAGGAUAUACAAAGACGAAAGUCAAAGUAGAAGGCCUAAAAG [Meechl MS2 SS1 2]”, for which the entries for the “apparent KD of MS2 coat protein” value with MS2 coat protein [1] and in the data set with MS2 coat protein [2] were 104 nM and 67.3 nM, respectively.
In the same order, the values of “AUAAAACAUGAGGAUCACCCAUGUAGAAAUAUGGGAGGAUAUACAAAGACGAAAGUCAAAGUAGAAGGCCUAAAAG [Mod of Meechl's design Meechl MS2 SS1 2]” are 24 nM and 66.2 nM.
Consider “AUAAAACAUGAGGAUCACCCAUGUGAAAAUAUGGGAGGAUAUACGUAGACGAAAGUCGACGUAGAAGGCCUAAAAG [Same State 1.4n.2 (Mat - Mod of Eli - )]”, for which the “apparent KD of MS2 coat protein” value in the data set with MS2 coat protein [1] was found to be 28.8 nM; in the data set on MS2 coat protein [2], 81.8 nM.
Regarding “AUAAAAGAAGCGAAGGAUAUCCAAAACUCAACAUGAGGAUCACCCAUGUAAAGAAAGAAAAAAUGGGAGAAGGUCGCAAAGAAUA [73%, More Fisker Same State 2, D3, 10]”, the “apparent KD of MS2 coat protein” value in the data set on MS2 coat protein [1] came out at 11.8 nM; in the data set with MS2 coat protein [2] it was 26.7 nM.
Consider “AUAAAAUAAAAGGAGGAUAUCCAUAAUAAAACAUGAGGAUCACCCAUGUAAAAAAGAAGAAAAUGGGAGAAGGCCUAAAAUAAAU [SS2 M 27]”, for which the “apparent KD of MS2 coat protein” value with MS2 coat protein [1] amounted to 11.4 nM; in the data set on MS2 coat protein [2], 23.6 nM.
Take “AUAAAAUAAACUGAGGAUAUCUAUAAUAAAACAUGAGGAUCACCCAUGUUUAAACAAAGAUCAUGGGAGAAGGCAGAAAAUAAAU [SS2 M 38]”: the “apparent KD of MS2 coat protein” value with MS2 coat protein [1] is 37.8 nM; with MS2 coat protein [2], 36.6 nM.
On the same counts, the results for “AUAAAGAAAAGGCAGGAUAUGUAAACUAAAACAUGAGGAUCACCCAUGUGGGAAAUAAAAUAAAAACAGAAGGGCCAAAAGAAUA [Designing denovo 17]” are 19.1 nM and 32.8 nM.
In the case of “AUAAUAUUAAGCAAGGAUAUACUAAAGUAAACAUGAGGAUCACCCAUGUAAAAAAAAAAACUCAUGUAGAAGGUGCAUAAAUAAA [moonwalk 10]”, the “apparent KD of MS2 coat protein” value in the data set on MS2 coat protein [1] was 8.92 nM; in the data set on MS2 coat protein [2], 33.1 nM.
